One assay concerns the target SEC24A tagged with Myc. Description: PLA. The settings on record: n = 3 independent experiments, n = 8 independent images quantified; parent: est. 4.5; read off a plot.
The target in assay [1] is SCG5 tagged with cYFP (UniProt P27682). Description: PLA. The settings on record: n = 4 independent experiments, n = 8 independent images quantified; parent: est. 100; read off a plot.
Assay [2] has as its target proinsulin tagged with C-terminal segment of YFP (cYFP) (UniProt P01322). Description: BiFC quantified by flow cytometry. The settings on record: n = 5 independent experiments; parent: est. 100; read off a plot. On the technique in general: In flow cytometry, cells or beads pass a laser one at a time.
UniProt P01322, sequence (P01322 25-110): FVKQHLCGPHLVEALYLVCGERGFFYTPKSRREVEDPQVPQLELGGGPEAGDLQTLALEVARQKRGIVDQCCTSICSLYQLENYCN
The target of the next assay is NPY tagged with cYFP (UniProt P07808). Description: BiFC quantified by flow cytometry. The settings on record: n = 5 independent experiments; parent: est. 100; read off a plot.
For the next assay, the target named is CPE tagged with cYFP (UniProt P15087). Description: BiFC quantified by flow cytometry. The settings on record: n = 5 independent experiments; parent: est. 100; read off a plot.
UniProt P15087, sequence (P15087 28-476): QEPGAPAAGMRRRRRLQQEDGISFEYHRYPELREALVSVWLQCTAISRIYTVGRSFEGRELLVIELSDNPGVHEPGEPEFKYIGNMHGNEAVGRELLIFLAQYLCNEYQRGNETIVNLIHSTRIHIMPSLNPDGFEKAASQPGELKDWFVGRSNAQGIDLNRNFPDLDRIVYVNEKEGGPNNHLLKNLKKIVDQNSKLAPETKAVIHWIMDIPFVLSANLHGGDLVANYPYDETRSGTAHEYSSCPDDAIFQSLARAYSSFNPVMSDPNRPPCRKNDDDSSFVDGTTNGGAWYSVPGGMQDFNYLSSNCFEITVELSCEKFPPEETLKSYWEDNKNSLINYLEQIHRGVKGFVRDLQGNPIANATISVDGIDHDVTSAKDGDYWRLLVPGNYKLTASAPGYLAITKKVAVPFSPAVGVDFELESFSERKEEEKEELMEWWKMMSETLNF
For assay [3], the target named is SCG5 tagged with cYFP (UniProt P27682). Description: BiFC quantified by flow cytometry. The settings on record: n = 5 independent experiments; parent: est. 100; read off a plot.

UniProt P27682, sequence (P27682 25-210): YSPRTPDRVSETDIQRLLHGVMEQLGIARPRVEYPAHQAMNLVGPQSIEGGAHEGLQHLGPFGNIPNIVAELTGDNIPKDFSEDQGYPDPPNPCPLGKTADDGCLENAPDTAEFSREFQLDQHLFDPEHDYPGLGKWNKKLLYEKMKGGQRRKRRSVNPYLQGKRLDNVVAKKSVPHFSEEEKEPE

In the case of HA-tagged WFS1 E158K, in the assay with SEC24A tagged with Myc, the response (puncta (>1µm2) per cell) was determined as 0.13.

Take HA-tagged WFS1 E169K: in the assay with SEC24A tagged with Myc, the response (puncta (>1µm2) per cell) came out at 0.13.

For HA-tagged WFS1 E809K, in the assay with SCG5 tagged with cYFP [1], the response (puncta (>1µm2) per cell) was determined as 56.

On to HA-tagged WFS1 E830A, for which the response (puncta (>1µm2) per cell) in the assay with SCG5 tagged with cYFP [1] came to 7.

For HA-tagged WFS1 G695V, the response (puncta (>1µm2) per cell) in the assay with SCG5 tagged with cYFP [1] amounted to 35.

As to HA-tagged WFS1 P724L, the response (puncta (>1µm2) per cell) in the assay with SCG5 tagged with cYFP [1] came to 55.

For the substance “WFS1 tagged with N-terminal segment of YFP (nYFP) E809K”, the percent of parent in assay [2] stood at 70%; in the assay with NPY tagged with cYFP, 41%; with CPE tagged with cYFP, 46%; with SCG5 tagged with cYFP [3], 71%.

On to “WFS1 tagged with N-terminal segment of YFP (nYFP) E830A”, for which the percent of parent in assay [2] worked out at 23%; in the assay with NPY tagged with cYFP, 3%; with CPE tagged with cYFP it was 2%; with SCG5 tagged with cYFP [3], 8%.

For “WFS1 tagged with N-terminal segment of YFP (nYFP) G695V”, the percent of parent in assay [2] was determined as 42%; in the assay with NPY tagged with cYFP it was 33%; with CPE tagged with cYFP it was 41%; with SCG5 tagged with cYFP [3], 56%.

As for “WFS1 tagged with N-terminal segment of YFP (nYFP) P724L”, the percent of parent in assay [2] stood at 61%; with NPY tagged with cYFP it was 49%; with CPE tagged with cYFP, 71%; with SCG5 tagged with cYFP [3], 54%.
